Biological target: T1, hPCSK9 (Homo sapiens, UniProt Q8NBP7)
T1 construct: purchased Sino Biologicals, China
Experiment: C6 hPCSK9 challenge model, LDL-R expression in mouse liver (Western blot)
Assay type: in vivo
Settings: healthy control 100%, hPCSK9 alone 0%
Experimental: Sixty minutes after the injection of hPCSK9, the animals are anaesthetised in isoflurane and euthanised by cervical dislocation. The liver is then quickly excised and snapfrozen in liquid nitrogen. The livers are kept at −80° C. until analysis.
The proteins are transferred to nitrocellulose membranes (iBlot 2 NC Regular stacks, novex #IB23001) according to manufacturer's instructions (Life Technology). Equal protein transfer is confirmed by Ponceau S (Sigma, P7170) staining of the membranes and the membranes are further blocked in blocking buffer (TBS-T, 2% Tween). […] Quantitative analysis of chemiluminescent signals from Western blots is done with MultiGauge software (Fujifilm).
The LDL-R expression levels were measured by Western Blot, and the expression levels compared.

T1 sequence (Q8NBP7 153-692): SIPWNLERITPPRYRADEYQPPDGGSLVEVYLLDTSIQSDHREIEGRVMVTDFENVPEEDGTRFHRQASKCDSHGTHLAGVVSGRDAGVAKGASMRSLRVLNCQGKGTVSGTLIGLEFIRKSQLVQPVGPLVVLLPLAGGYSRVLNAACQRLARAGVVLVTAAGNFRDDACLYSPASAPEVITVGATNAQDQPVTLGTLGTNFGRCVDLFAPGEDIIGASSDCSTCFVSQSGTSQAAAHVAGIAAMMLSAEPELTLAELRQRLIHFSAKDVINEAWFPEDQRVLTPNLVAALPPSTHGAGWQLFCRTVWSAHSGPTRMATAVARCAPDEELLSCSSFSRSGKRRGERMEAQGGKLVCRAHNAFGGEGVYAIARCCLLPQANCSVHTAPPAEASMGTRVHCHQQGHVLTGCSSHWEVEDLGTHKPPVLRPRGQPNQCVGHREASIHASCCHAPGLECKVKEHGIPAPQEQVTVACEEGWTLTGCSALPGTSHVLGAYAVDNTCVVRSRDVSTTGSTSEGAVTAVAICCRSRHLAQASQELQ

Alirocumab: anti-PCSK9 antibody, control molecule in the hPCSK9 challenge model
Percentage of baseline (%) Mean ± SEM (compound 30 nmol/kg): 100 ± 13%
Percentage of baseline (%) (inhibitor 22 nmol/kg): 157%

Reference: patent publication US11130794B2, “Bifunctional compounds” (Novo Nordisk A/S, priority 2017, dated 2021)
